Measured values published in US20140031283A1, “ANTICANCER FUSION PROTEIN” (ADAMED SP. Z O.O., priority 2011, published 2014).
Where “and” joins values, the source holds several entries; their conditions need not be identical. Identical values can stand only once.

B1: Ex. 3: fusion protein: 8-amino acid fragment of human fetoprotein at C-terminus of TRAIL121-281, MMP and uPA cleavage sites (protein)
chain: RVAAHITGTRGRSNTLSSPNSKNEKALGRKINSWESSRSGHSFLSNLHLRNGELVIHEKGFYYIYSQTYFRFQEEIKENTKNDKQMVQYIYKYTSYPDPILLMKSARNSCWSKDAEYGLYSIYQGGIFELKENDRIFVSVTNEHLIDMDHEASFFGAFLVGPLGLAGRVVREMTPVNPG
modifications: synthesized, a fusion protein comprising: a fragment of TRAIL protein, a fragment of human fetoprotein and cleavage sites recognized by uPA and MMP.
notes: fusion protein: 8-amino acid fragment of human fetoprotein at C-terminus of TRAIL121-281, MMP and uPA cleavage sites
B2: Ex. 23: fusion protein: 13-amino acid inhibitor of RasGAP-Aurora B interactions with 8 arginine residues at N-terminus of TRAIL121-281, uPA and MMP sites (protein)
chain: KWVVSHARLMYSFRRRRRRRRRVVRPLGLAGCRVAAHITGTRGRSNTLSSPNSKNEKALGRKINSWESSRSGHSFLSNLHLRNGELVIHEKGFYYIYSQTYFRFQEEIKENTKNDKQMVQYIYKYTSYPDPILLMKSARNSCWSKDAEYGLYSIYQGGIFELKENDRIFVSVTNEHLIDMDHEASFFGAFLVG
modifications: synthesized, a fusion protein comprising: a fragment of TRAIL protein, a peptide acting as an inhibitor of interactions RasGAP - Aurora B, cleavage sites recognized by uPA and MMP, an arginine transporting domain and a cysteine stabilizing residue.

What was measured:
[1] = system: UM-UC-3; experiment: MTT cytotoxicity test, UM-UC-3 (human bladder cancer); format: cell-based; details: Table 4, mean/SD part
Text: (§1) MTT assay is a colorimetric assay used to measure proliferation, viability and cytotoxicity of cells. It consists in decomposition of a yellow tetrazolium salt MTT (4,5-dimethyl-2-thiazolyl)-2,5-diphenyltetrazolium bromide) to the water-insoluble purple dye formazan by mitochondrial enzyme succinate-tetrazolium reductase 1. MTT reduction occurs only in living cells. Data analysis consists in determining IC50 concentration of the protein (in ng/ml), at which the 50% reduction in the number of cells occurs in the population treated compared to control cells. Results were analyzed using GraphPad Prism 5.0 software. The test was performed according to the literature descriptions (Cells, J E, (1998). Cell Biology, a Laboratory Handbook, second edition, Academic Press, San Diego; Yang, Y., Koh, L W, Tsai, J H., (2004); Involvement of viral and chemical factors with oral cancer in Taiwan, Jpn J Clin Oncol, 34 (4), 176-183). Cell culture medium was diluted to a defined density (10^4-10^5 cells per 100 μl). Then 100 μl of appropriately diluted cell suspension was applied to a 96-well plate in triplicates. […] After stirring, the absorbance was measured at 570 nm (reference filter 690 nm). […]

[2] = system: SK-MES-1; experiment: MTT cytotoxicity test, SK-MES-1 (human lung cancer); format: cell-based
Text: (§2) MTT assay is a colorimetric assay used to measure proliferation, viability and cytotoxicity of cells. It consists in decomposition of a yellow tetrazolium salt MTT (4,5-dimethyl-2-thiazolyl)-2,5-diphenyltetrazolium bromide) to the water-insoluble purple dye formazan by mitochondrial enzyme succinate-tetrazolium reductase 1. MTT reduction occurs only in living cells. Data analysis consists in determining IC50 concentration of the protein (in ng/ml), at which the 50% reduction in the number of cells occurs in the population treated compared to control cells. Results were analyzed using GraphPad Prism 5.0 software. The test was performed according to the literature descriptions (Cells, J E, (1998). Cell Biology, a Laboratory Handbook, second edition, Academic Press, San Diego; Yang, Y., Koh, L W, Tsai, J H., (2004); Involvement of viral and chemical factors with oral cancer in Taiwan, Jpn J Clin Oncol, 34 (4), 176-183). Cell culture medium was diluted to a defined density (10^4-10^5 cells per 100 μl). Then 100 μl of appropriately diluted cell suspension was applied to a 96-well plate in triplicates. Thus prepared cells were incubated for 24 h at 37° C. in 5% or 10% CO2, depending on the medium used, and then to the cells (in 100 μl of medium) further 100 μl of the medium containing various concentrations of tested proteins were added. In the case of combination hTRAIL114-281 and p21WAF effector protein, 100 μl of the medium containing mixture of hTRAIL114-281 and p21WAF effector protein in molar ratio 1:1 was added. After incubation of the cells with tested proteins over the period of next 72 hours, which is equivalent to 3-4 times of cell division, the medium with the test protein was added with […] of MTT working solution [5 mg/ml], and incubation was continued for 3 h at 37° C. in 5% CO2. Then the medium with MTT solution was removed, and formazan crystals were dissolved by adding 100 μl of DMSO. After stirring, the absorbance was measured at 570 nm (reference filter 690 nm).
(§3) The results of in vitro cytotoxicity tests are summarized as IC50 values (ng/ml), which corresponds to the protein concentration at which the cytotoxic effect of fusion proteins is observed at the level of 50% with respect to control cells treated only with solvent. Each experiment represents the average value of at least two independent experiments performed in triplicates. As a criterion of lack of activity of protein preparations the IC50 limit of 2000 ng/ml was adopted.

[3] = system: MES-SA/Dx5; experiment: MTT cytotoxicity test, MES-SA/Dx5 (multidrug-resistant human uterine sarcoma); format: cell-based
Text: as §2, §3
Cells selected for this test included tumor cell lines that are naturally resistant to TRAIL protein (the criterion of natural resistance to TRAIL: IC50 for TRAIL protein >2000), as well as tumor cell lines sensitive to TRAIL protein and resistant to doxorubicin line MES-SA/DX5 as a cancer line resistant to conventional anticancer medicaments.

[4] = system: HCT-116
Procedure: Data analysis consists in determining IC50 concentration of the protein (in ng/ml), at which the 50% reduction in the number of cells occurs in the population treated compared to control cells. Results were analyzed using GraphPad Prism 5.0 software. […] Cell culture medium was diluted to a defined density (10^4-10^5 cells per 100 μl). Then 100 μl of appropriately diluted cell suspension was applied to a 96-well plate in triplicates. Thus prepared cells were incubated for 24 h at 37° C. in 5% or 10% CO2, depending on the medium used, and then to the cells (in 100 μl of medium) further 100 μl of the medium containing various concentrations of tested proteins were added. […] After incubation of the cells with tested proteins over the period of next 72 hours, which is equivalent to 3-4 times of cell division, the medium with the test protein was added with 20 ml of MTT working solution [5 mg/ml], and incubation was continued for 3 h at 37° C. in 5% CO2. Then the medium with MTT solution was removed, and formazan crystals were dissolved by adding 100 μl of DMSO. After stirring, the absorbance was measured at 570 nm (reference filter 690 nm).

[5] = system: MES-SA; experiment: MTT cytotoxicity test, MES-SA (human uterine sarcoma); format: cell-based
Text: as §2, §3

[6] = system: NIH: OVCAR-3; experiment: MTT cytotoxicity test, NIH: OVCAR-3 (human ovarian cancer); format: cell-based; details: Table 4, mean/SD part
Text: as §1

[7] = system: MDA-MB-231; experiment: MTT cytotoxicity test, MDA-MB-231 (human breast cancer); format: cell-based; details: Table 4, mean/SD part
Text: as §1

[8] = system: NCI-H460; details: Table 4, mean/SD part
[9] = system: MCF10A; experiment: MTT cytotoxicity test, MCF10A (mammary epithelial cells); format: cell-based
Text: as §2, §3

[10] = system: PLC/PRF/5; experiment: MTT cytotoxicity test, PLC/PRF/5 (human liver hepatoma); format: cell-based; details: Table 4, mean/SD part
Text: as §1

[11] = system: SW620; experiment: MTT cytotoxicity test, SW620 (human colorectal cancer); format: cell-based; details: Table 4, mean/SD part
Text: as §1

[12] = system: Panc-1; experiment: MTT cytotoxicity test, Panc-1 (human pancreatic cancer); format: cell-based; details: Table 4, mean/SD part
Text: as §1

[13] = system: HepG2; experiment: MTT cytotoxicity test, HepG2 (human liver hepatoma); format: cell-based; details: Table 4, mean/SD part
Text: as §1

[14] = system: A549; experiment: MTT cytotoxicity test, A549 (human lung cancer); format: cell-based
Text: as §2, §3

[15] = continuous incubation over 72 h, test MTT

Molecule | UM-UC-3 mean (IC50) [1] [µg/mL] | SK-MES-1 mean (IC50) ([2]; Table 4, mean/SD part) [µg/mL] | MES-SA/Dx5 mean (IC50) ([3]; Table 4, mean/SD part) [µg/mL] | HCT116 mean (IC50) ([4]; Table 4, mean/SD part) [µg/mL] | MES-SA mean (IC50) ([5]; Table 4, mean/SD part) [µg/mL] | OVCAR-3 mean (IC50) [6] [µg/mL] | MDA-MB-231 mean (IC50) [7] [µg/mL] | NCI-H460 mean (IC50) [8] [µg/mL] | MCF10A mean (IC50) ([9]; Table 4, mean/SD part) [µg/mL] | MCF10A IC50 [9, 15] [µg/mL] | SK-MES-1 IC50 [2, 15] [µg/mL] | PLC/PRF/5 mean (IC50) [10] [µg/mL] | SW620 mean (IC50) [11] [µg/mL] | PANC-1 mean (IC50) [12] [µg/mL] | MES-SA/Dx5 IC50 [3, 15] [µg/mL] | HCT116 IC50 [4, 15] [µg/mL] | MES-SA IC50 [5, 15] [µg/mL] | HepG2 mean (IC50) [13] [µg/mL] | A549 mean (IC50) ([14]; Table 4, mean/SD part, listed as Ex. 23^a) | A549 IC50 [14, 15] [µg/mL]
B1 | 0.0204 | 0.007755 | 0.03431 | 0.041 | 0.03618 | 0.02751 | 0.02086 | – | – | – | – | – | – | – | – | – | – | – | – | –
B2 | – | – | – | – | – | – | – | 0.00711 | 0.005196 | 0.00598 | 0.00042 | 0.006821 | 0.01192 | 0.0229 | 0.00013 | 0.00148 | 0.00061 | 0.01049 | 0.2784 µg/mL and 0.3589 µg/mL | 0.2387
